{
  "source": "patent US20220267469A1",
  "key": {"[1]": {"molecular_target": "Biotinylated human BSSL (human) (UniProt P19835)", "sequence (P19835 other isoform, or with tags, fused parts or gaps)": "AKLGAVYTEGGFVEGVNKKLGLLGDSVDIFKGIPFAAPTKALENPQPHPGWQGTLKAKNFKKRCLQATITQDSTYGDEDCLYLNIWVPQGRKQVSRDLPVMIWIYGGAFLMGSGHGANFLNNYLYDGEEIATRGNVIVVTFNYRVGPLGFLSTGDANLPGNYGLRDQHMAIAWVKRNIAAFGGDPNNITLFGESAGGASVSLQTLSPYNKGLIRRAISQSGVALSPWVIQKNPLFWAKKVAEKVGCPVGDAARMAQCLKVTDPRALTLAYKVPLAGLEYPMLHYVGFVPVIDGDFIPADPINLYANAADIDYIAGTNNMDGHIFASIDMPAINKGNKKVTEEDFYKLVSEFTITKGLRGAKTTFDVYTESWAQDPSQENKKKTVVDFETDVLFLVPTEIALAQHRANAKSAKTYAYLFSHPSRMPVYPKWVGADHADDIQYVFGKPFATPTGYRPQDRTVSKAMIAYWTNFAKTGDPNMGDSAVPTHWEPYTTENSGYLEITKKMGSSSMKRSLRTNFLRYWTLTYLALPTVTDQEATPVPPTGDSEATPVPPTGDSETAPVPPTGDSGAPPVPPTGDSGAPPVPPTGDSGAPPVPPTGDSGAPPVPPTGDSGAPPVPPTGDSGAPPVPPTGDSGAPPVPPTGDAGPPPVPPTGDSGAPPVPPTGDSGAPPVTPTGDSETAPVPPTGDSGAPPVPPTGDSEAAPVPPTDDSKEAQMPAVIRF", "test": "SPR single cycle kinetics, scFv captured by anti-FLAG M2"}, "[2]": {"molecular_target": "Biotinylated human BSSL (human) (UniProt P19835)", "test": "ELISA, b-hBSSL coated through streptavidin at 1 µg/ml, detection HRP anti-FLAG M2, A450"}, "[3]": {"molecular_target": "Biotinylated human BSSL (human) (UniProt P19835)", "test": "flow cytometry displacement assay; 1.5 ug antibody, 1 ug b-hBSSL"}, "[4]": {"molecular_target": "Biotinylated human BSSL (human) (UniProt P19835)", "test": "flow cytometry displacement assay; 3.0 ug antibody, 1 ug b-hBSSL"}},
  "data": [
    {"binder": "AS20 scFv (scFv, V domains shown, not shown: small tags and cut ends, Gly-Ser linker; C-terminal 3xFLAG and His6 tags) VH: QVQLQQPGAELVKPGASVKMSCKASGYTFTSYNMHWVKQTPGQGLEWIGVIYPGNGDTSYNQKFKGKATLTADKSSSTAYMQLSSLTSEDSAVYYCARDYYGSSPLGYWGQGTTLTVSS VL: QIVLTQSPAVMSASPGEKVTMTCSASSSISYMHWYQQKPGTSPKRWIYDTSKLASGVPARFSGSGSGTSYSLTISSMEAEDAATYYCHQRSSYPTFGGGTKLEIK", "values": [
      {"measurement": "Kd", "setting": "[1]", "result": 0.8, "unit": "nM"},
      {"measurement": "koff", "setting": "[1]", "result": "4.4e-05", "unit": "s⁻¹"},
      {"measurement": "kon", "setting": "[1]", "result": 55000, "unit": "M⁻¹ s⁻¹"},
      {"measurement": "EC50 (read off the curve)", "setting": "[2]", "result": 20, "unit": "ng/mL"}
    ]},
    {"binder": "S-SL048-75 hIgG4 S228P (antibody, V domains shown) VH: QVQLVQSGAEVKKPGASVKVSCKASGYTFTSYNMHWVRQAPGQGLEWMGVIYPGGGYTSYAQKFKGRVTMTRDTSTSTVYMELSSLRSEDTAVYYCARDYYGSSPLGYWGQGTLVTVSS VL: DIQMTQSPSSLSASVGDRVTITCRASQSISYLNWYQQKPGKAPKLLIYATSNLQSGVPSRFSGSGSGTDFTLTISSLQPEDFATYYCHQRSSSPTFGQGTKLEIK", "values": [
      {"measurement": "percentage reduction of b-hBSSL binding to CD14+ monocytes", "setting": "[3]", "result": 3, "unit": "%"},
      {"measurement": "percentage reduction of b-hBSSL binding to CD14+ monocytes", "setting": "[4]", "result": 0, "unit": "%"}
    ]}
  ]
}
